From doi:10.1101/2020.11.13.381095 (bioRxiv, 2020)

T1: adrenodoxin (human, UniProt P10109 61-184)
T1 sequence (looked up): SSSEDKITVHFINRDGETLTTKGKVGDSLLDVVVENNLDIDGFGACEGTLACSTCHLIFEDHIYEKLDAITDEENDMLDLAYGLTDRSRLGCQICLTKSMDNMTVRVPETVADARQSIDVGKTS

B1: cytochrome P450 CYP11B2 (aldosterone synthase) (enzyme, human, UniProt P19099 25-503, looked up)
chain: GTRAARAPRTVLPFEAMPQHPGNRWLRLLQIWREQGYEHLHLEMHQTFQELGPIFRYNLGGPRMVCVMLPEDVEKLQQVDSLHPCRMILEPWVAYRQHRGHKCGVFLLNGPEWRFNRLRLNPDVLSPKAVQRFLPMVDAVARDFSQALKKKVLQNARGSLTLDVQPSIFHYTIEASNLALFGERLGLVGHSPSSASLNFLHALEVMFKSTVQLMFMPRSLSRWISPKVWKEHFEAWDCIFQYGDNCIQKIYQELAFNRPQHYTGIVAELLLKAELSLEAIKANSMELTAGSVDTTAFPLLMTLFELARNPDVQQILRQESLAAAASISEHPQKATTELPLLRAALKETLRLYPVGLFLERVVSSDLVLQNYHIPAGTLVQVFLYSLGRNAALFPRPERYNPQRWLDIRGSGRNFHHVPFGFGMRQCLGRRLAEAEMLLLLHHVLKHFLVETLTQEDIKMVYSFILRPGTSPLLTFRAIN
B2: cytochrome P450 CYP11B1 (11ß-hydroxylase) (enzyme, human)
chain: VPRTVLPFEAMPRRPGNRWLRLLQIWREQGYEDLHLEVHQTFQELGPIFRYDLGGAGMVCVMLPEDVEKLQQVDSLHPHRMSLEPWVAYRQHRGHKCGVFLLNGPEWRFNRLRLNPEVLSPNAVQRFLPMVDAVARDFSQALKKKVLQNARGSLTLDVQPSIFHYTIEASNLALFGERLGLVGHSPSSASLNFLHALEVMFKSTVQLMFMPRSLSRWTSPKVWKEHFEAWDCIFQYGDNCIQKIYQELAFSRPQQYTSIVAELLLNAELSPDAIKANSMELTAGSVDTTVFPLLMTLFELARNPNVQQALRQESLAAAASISEHPQKATTELPLLRAALKETLRLYPVGLFLERVASSDLVLQNYHIPAGTLVRVFLYSLGRNPALFPRPERYNPQRWLDIRGSGRNFYHVPFGFGMRQCLGRRLAEAEMLLLLHHVLKHLQVETLTQEDIKMVYSFILRPSMFPLLTFRAIN
B3: cytochrome P450 CYP11A1 (cholesterol side chain cleavage enzyme) (enzyme, human)
chain: STRSPRPFNEIPSPGDNGWLNLYHFWRETGTHKVHLHHVQNFQKYGPIYREKLGNVESVYVIDPEDVALLFKSEGPNPERFLIPPWVAYHQYYQRPIGVLLKKSAAWKKDRVALNQEVMAPEATKNFLPLLDAVSRDFVSVLHRRIKKAGSGNYSGDISDDLFRFAFESITNVIFGERQGMLEEVVNPEAQRFIDAIYQMFHTSVPMLNLPPDLFRLFRTKTWKDHVAAWDVIFSKADIYTQNFYWELRQKGSVHHDYRGILYRLLGDSKMSFEDIKANVTEMLAGGVDTTSMTLQWHLYEMARNLKVQDMLRAEVLAARHQAQGDMATMLQLVPLLKASIKETLRLHPISVTLQRYLVNDLVLRDYMIPAKTLVQVAIYALGREPTFFFDPENFDPTRWLSKDKNITYFRNLGFGWGVRQCLGRRIAELEMTIFLINMLENFRVEIQHLSDVGTTFNLILMPEKPISFTFWPFNQEATQQ

What was measured:
Assay in all cases: SPR
adrenodoxin [1] = biological target: T1, adrenodoxin
adrenodoxin [2] = biological target: T1, adrenodoxin; remark: listed apart in the source
adrenodoxin [3] = biological target: T1, adrenodoxin; remark: listed apart in the source
adrenodoxin [4] = biological target: T1, adrenodoxin; remark: listed apart in the source
adrenodoxin [5] = biological target: T1, adrenodoxin; remark: listed apart in the source
adrenodoxin [6] = biological target: T1, adrenodoxin; remark: listed apart in the source
adrenodoxin [7] = biological target: T1, adrenodoxin; remark: listed apart in the source
adrenodoxin [8] = biological target: T1, adrenodoxin; remark: listed apart in the source
adrenodoxin [9] = biological target: T1, adrenodoxin; remark: listed apart in the source

Binder | fold increase of Kd with 11-deoxycorticosterone against ligand-free (adrenodoxin [1]) | fold increase of koff with 11-deoxycorticosterone against ligand-free (adrenodoxin [1]) | fold increase of Kd with 11-deoxycortisol against ligand-free (adrenodoxin [2]) | fold change of Kd with corticosterone against ligand-free (adrenodoxin [3]) | fold increase of kon with 11-deoxycorticosterone against ligand-free (adrenodoxin [1]) | fold increase of koff with 11-deoxycortisol against ligand-free (adrenodoxin [2]) | fold increase of kon with 11-deoxycortisol against ligand-free (adrenodoxin [2]) | fold decrease of kon with 20S-hydroxycholesterol against ligand-free (adrenodoxin [4]) | fold increase of Kd with 20S-hydroxycholesterol against ligand-free (adrenodoxin [4]) | fold increase of Kd with pregnenolone against cholesterol (adrenodoxin [5]) | fold decrease of kon with 20R,22R-dihydroxycholesterol against ligand-free (adrenodoxin [6]) | fold increase of Kd with 20R,22R-dihydroxycholesterol against cholesterol (adrenodoxin [6]) | fold increase of Kd with 20R,22R-dihydroxycholesterol against ligand-free (adrenodoxin [6]) | fold increase of koff with 20R,22R-dihydroxycholesterol against ligand-free (adrenodoxin [6]) | fold change of koff with cholesterol against ligand-free (adrenodoxin [7]) | fold increase of kon with cholesterol against ligand-free (adrenodoxin [7]) | fold decrease of kon with 25-hydroxycholesterol against ligand-free (adrenodoxin [8]) | fold increase of Kd with 25-hydroxycholesterol against ligand-free (adrenodoxin [8]) | fold increase of Kd with 22R-hydroxycholesterol against cholesterol (adrenodoxin [9])
B1 | 11 fold | 7 fold | 4.7 fold | 1.7 fold |  |  |  |  |  |  |  |  |  |  |  |  |  |  | 
B2 | 2.4 fold | 4.4 fold |  |  | ~2 fold | ~3.2 fold | 4 fold |  |  |  |  |  |  |  |  |  |  |  | 
B3 |  |  |  |  |  |  |  | 2 fold | 3.1 fold | ~21 fold | 2 fold | ~10 fold | ~3.4 fold | ~1.8 fold | ~1.5 fold | 4 fold | 2 fold | 4.6 fold | 4 fold
